The experiment deals with SH2B (human) (UniProt Q9NRF2). Briefly: ITC.

JAK2 pY813 peptide displayed a Ka of 1.45e+06 M⁻¹, a Kd of 690 nM and a stoichiometry N of 0.79.

For the origin of these results see paper PMC8640019.
